Our source for the stoichiometry N values is paper PMC7978432.

In assay [1] the target is SARS-CoV-1 RBD-5GS-1TD0 (SARS-CoV-1 | not stated). As to the kind of experiment: SDS-PAGE.
Assay [2] addresses SARS-CoV-2 RBD-5GS-1TD0 (SARS-CoV-2 | not stated) (UniProt P0DTC2). As to the kind of experiment: SEC.
For assay [3] the target is unchanged. As to the kind of experiment: SDS-PAGE.

As to SARS-CoV-1 RBD-5GS-1TD0, the stoichiometry N in assay [1] was 3.
As to “SARS-CoV-2 RBD-5GS-1TD0 (from UniProt P0DTC2 330-532)”, the stoichiometry N in assay [2] and in assay [3] was 3 in each case.
